Source: patent US12060424 (AMUNIX PHARMACEUTICALS, dated 2024)
One block for each binder: values may come before it.

Assays:
[1] = target: T1, recombinant human EpCAM (rhEpCAM), coated on ELISA plate (human, UniProt P16422 24-265); test: sandwich ELISA: rhEpCAM coated, peroxidase-conjugated protein L detection
T1 construct: Bought reagent
T1 sequence (looked up): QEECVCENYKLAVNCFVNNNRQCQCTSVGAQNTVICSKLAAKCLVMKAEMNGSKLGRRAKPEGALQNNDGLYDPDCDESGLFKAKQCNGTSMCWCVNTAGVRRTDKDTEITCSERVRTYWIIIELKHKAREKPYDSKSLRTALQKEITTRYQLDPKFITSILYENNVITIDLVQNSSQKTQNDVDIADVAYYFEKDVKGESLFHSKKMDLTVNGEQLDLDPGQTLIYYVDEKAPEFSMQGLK

[2] = target: recombinant human CD3 epsilon & delta (rhCD3ε & δ), Creative BioMart cat #CD3E&CD3D-219H (human) (UniProt P07766); test: sandwich ELISA: rhCD3ε & δ coated, biotinylated anti-XTEN antibody detection
[3] = target: T2, human EpCAM expressed on cells (CHO cells stably transfected with human EpCAM); EpCAM-positive human tumor … (human, UniProt P16422 24-314); test: cell-based or functional assay
T2 sequence (looked up): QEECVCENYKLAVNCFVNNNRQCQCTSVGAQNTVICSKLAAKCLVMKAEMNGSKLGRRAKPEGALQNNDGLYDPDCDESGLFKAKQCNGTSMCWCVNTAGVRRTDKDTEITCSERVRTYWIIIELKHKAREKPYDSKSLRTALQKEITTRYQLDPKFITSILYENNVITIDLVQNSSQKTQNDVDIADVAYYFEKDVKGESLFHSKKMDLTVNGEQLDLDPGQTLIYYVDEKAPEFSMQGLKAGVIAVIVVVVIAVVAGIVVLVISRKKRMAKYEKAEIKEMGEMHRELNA

[4] = target: recombinant human CD3 epsilon & delta (rhCD3ε & δ), Creative BioMart cat #CD3E&CD3D-219H (human) (UniProt P07766); test: sandwich ELISA: rhCD3ε & δ coated, peroxidase-conjugated protein L detection
[5] = target: recombinant human CD3 epsilon & delta (rhCD3ε & δ), Creative BioMart cat #CD3E&CD3D-219H (human) (UniProt P07766); test: SPR (Biacore 3000), His-tagged CD3εδ coupled to chip, ProTIA as analyte at 5-6 concentrations
[6] = target: human CD3 on cells (CD3+ Jurkat cells; purified human CD3 positive T cells) (human, UniProt P07766 23-207); test: cell-based or functional assay
[7] = target: T3, Fc-tagged EpCAM (R&D Systems, cat #960-EP-050), human, coupled to SPR chip (human, UniProt P16422 24-265); test: SPR (Biacore 3000), Fc-tagged EpCAM coupled to chip, ProTIA as analyte at 5-6 concentrations
T3 construct: Bought reagent; also called human EpCAM; EpCAM chip; not shown: Fc tag of the bought reagent
T3 sequence (looked up): T1 sequence (looked up)

recombinant human CD3 epsilon & delta (rhCD3ε & δ), Creative BioMart cat #CD3E&CD3D-219H (human), sequence (P07766 23-126, stated change not applied, chain 1 of 2): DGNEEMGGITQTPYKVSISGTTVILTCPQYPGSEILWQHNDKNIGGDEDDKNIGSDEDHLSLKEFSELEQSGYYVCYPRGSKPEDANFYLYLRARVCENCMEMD
recombinant human CD3 epsilon & delta (rhCD3ε & δ), Creative BioMart cat #CD3E&CD3D-219H (human), sequence (P04234 22-105, stated change not applied, chain 2 of 2, further chain): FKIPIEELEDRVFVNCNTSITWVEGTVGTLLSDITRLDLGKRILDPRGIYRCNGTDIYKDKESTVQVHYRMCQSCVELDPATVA
human CD3 on cells (CD3+ Jurkat cells; purified human CD3 positive T cells), sequence (P07766 23-207): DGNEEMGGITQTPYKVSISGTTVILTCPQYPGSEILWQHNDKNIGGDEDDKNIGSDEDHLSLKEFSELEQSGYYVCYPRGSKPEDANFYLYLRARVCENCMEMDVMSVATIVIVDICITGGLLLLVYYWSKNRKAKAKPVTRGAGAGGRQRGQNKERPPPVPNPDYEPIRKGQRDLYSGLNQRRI

EC50 [1]: 0.32 nM
EC50 [2]: 0.027 µg/mL
EC50 [4]: 2.2 nM
Kd [5]: 27.8 nM
Kd [7]: 10 nM
B1: AC1484 non-cleavable anti-EpCAM×anti-CD3 ProTIA (ProTIA without the release segment cleavage sequence) (bispecific antibody)
chain: DIQMTQSPSSLSASVGDRVTITCRSTKSLLHSNGITYLYWYQQKPGKAPKLLIYQMSNLASGVPSRFSSSGSGTDFTLTISSLQPEDFATYYCAQNLEIPRTFGQGTKVEIKGATPPETGAETESPGETTGGSAESEPPGEGQVQLVQSGPGLVQPGGSVRISCAASGYTFTNYGMNWVKQAPGKGLEWMGWINTYTGESTYADSFKGRFTFSLDTSASAAYLQINSLRAEDTAVYYCARFAIKGDYWGQGTLLTVSSGGGGSDIQMTQSPSSLSASVGDRVTITCRASQDIRNYLNWYQQKPGKAPKLLIYYTSRLESGVPSRFSGSGSGTDYTLTISSLQPEDFATYYCQQGNTLPWTFGQGTKVEIKGATPPETGAETESPGETTGGSAESEPPGEGEVQLVESGGGLVQPGGSLRLSCAASGYSFTGYTMNWVRQAPGKGLEWVALINPYKGVSTYNQKFKDRFTISVDKSKNTAYLQMNSLRAEDTAVYYCARSGYYGDSDWYFDVWGQGTLVTVSSGSPGSPAGSPTSTEEGTSESATPESGPGTSTEPSEGSAPGSPAGSPTSTEEGTSTEPSEGSAPGTSTEPSEGSAPGTSESATPESGPGSEPATSGSETPGSEPATSGSETPGSPAGSPTSTEEGTSESATPESGPGTSTEPSEGSAPGTSTEPSEGSAPGSPAGSPTSTEEGTSTEPSEGSAPGTSTEPSEGSAPGTSESATPESGPGTSTEPSEGSAPGTSESATPESGPGSEPATSGSETPGTSTEPSEGSAPGTSTEPSEGSAPGTSESATPESGPGTSESATPESGPGSPAGSPTSTEEGTSESATPESGPGSEPATSGSETPGTSESATPESGPGTSTEPSEGSAPGTSTEPSEGSAPGTSTEPSEGSAPGTSTEPSEGSAPGTSTEPSEGSAPGTSTEPSEGSAPGSPAGSPTSTEEGTSTEPSEGSAPGTSESATPESGPGSEPATSGSETPGTSESATPESGPGSEPATSGSETPGTSESATPESGPGTSTEPSEGSAPGTSESATPESGPGSPAGSPTSTEEGSPAGSPTSTEEGSPAGSPTSTEEGTSESATPESGPGTSTEPSEGSAPGTSESATPESGPGSEPATSGSETPGTSESATPESGPGSEPATSGSETPGTSESATPESGPGTSTEPSEGSAPGSPAGSPTSTEEGTSESATPESGPGSEPATSGSETPGTSESATPESGPGSPAGSPTSTEEGSPAGSPTSTEEGTSTEPSEGSAPGTSESATPESGPGTSESATPESGPGTSESATPESGPGSEPATSGSETPGSEPATSGSETPGSPAGSPTSTEEGTSTEPSEGSAPGTSTEPSEGSAPGSEPATSGSETPGTSESATPESGPGTSTEPSEGSAPGHHHHHH
notes: Single chain: anti-EpCAM scFv, anti-CD3 scFv, XTEN864, His6, no release segment; also called non-cleavable ProTIA; protease-non-cleavable anti-EpCAM×anti-CD3 ProTIA
EC50 (pM), caspase 3/7 cytotoxicity, PBMC with HCT-116 cells 10:1 [3]: 1270 pM
EC50 (pM), caspase 3/7 cytotoxicity, PBMC with HPAF-II cells 10:1 [3]: 1170 pM
EC50 (pM), caspase 3/7 cytotoxicity, PBMC with MDA-MB-231 cells 10:1 [3]: 10200 pM
EC50, LDH release cytotoxicity, purified human CD3 positive T cells with OVCAR-3 cells 5:1 [6]: 0.086 nM
EC50, LDH release cytotoxicity, purified human CD3 positive T cells with SK-OV-3 cells 5:1 [6]: 2.66 nM

EC50 [1]: 0.28 nM
fold hindrance of binding by XTEN864 (against the protease-treated ProTIA) [1]: ≥ 2.3 fold
EC50 [4]: 1.8 nM
fold hindrance of binding by XTEN864 (against the cleaved and released anti-CD3scFv portion) [4]: 5.8 fold
Kd [5]: 15.3 nM
Kd [7]: 11.4 nM
B2: AC1476 aEpCAM-aCD3-BSRS1-XTEN_AE864-His(6), protease-untreated (uncleaved) anti-EpCAM×anti-CD3 ProTIA (bispecific antibody)
chain: DIQMTQSPSSLSASVGDRVTITCRSTKSLLHSNGITYLYWYQQKPGKAPKLLIYQMSNLASGVPSRFSSSGSGTDFTLTISSLQPEDFATYYCAQNLEIPRTFGQGTKVEIKGATPPETGAETESPGETTGGSAESEPPGEGQVQLVQSGPGLVQPGGSVRISCAASGYTFTNYGMNWVKQAPGKGLEWMGWINTYTGESTYADSFKGRFTFSLDTSASAAYLQINSLRAEDTAVYYCARFAIKGDYWGQGTLLTVSSGGGGSDIQMTQSPSSLSASVGDRVTITCRASQDIRNYLNWYQQKPGKAPKLLIYYTSRLESGVPSRFSGSGSGTDYTLTISSLQPEDFATYYCQQGNTLPWTFGQGTKVEIKGATPPETGAETESPGETTGGSAESEPPGEGEVQLVESGGGLVQPGGSLRLSCAASGYSFTGYTMNWVRQAPGKGLEWVALINPYKGVSTYNQKFKDRFTISVDKSKNTAYLQMNSLRAEDTAVYYCARSGYYGDSDWYFDVWGQGTLVTVSSGTAEAASASGLSGRSDNHSPLGLAGSPGSPAGSPTSTEEGTSESATPESGPGTSTEPSEGSAPGSPAGSPTSTEEGTSTEPSEGSAPGTSTEPSEGSAPGTSESATPESGPGSEPATSGSETPGSEPATSGSETPGSPAGSPTSTEEGTSESATPESGPGTSTEPSEGSAPGTSTEPSEGSAPGSPAGSPTSTEEGTSTEPSEGSAPGTSTEPSEGSAPGTSESATPESGPGTSTEPSEGSAPGTSESATPESGPGSEPATSGSETPGTSTEPSEGSAPGTSTEPSEGSAPGTSESATPESGPGTSESATPESGPGSPAGSPTSTEEGTSESATPESGPGSEPATSGSETPGTSESATPESGPGTSTEPSEGSAPGTSTEPSEGSAPGTSTEPSEGSAPGTSTEPSEGSAPGTSTEPSEGSAPGTSTEPSEGSAPGSPAGSPTSTEEGTSTEPSEGSAPGTSESATPESGPGSEPATSGSETPGTSESATPESGPGSEPATSGSETPGTSESATPESGPGTSTEPSEGSAPGTSESATPESGPGSPAGSPTSTEEGSPAGSPTSTEEGSPAGSPTSTEEGTSESATPESGPGTSTEPSEGSAPGTSESATPESGPGSEPATSGSETPGTSESATPESGPGSEPATSGSETPGTSESATPESGPGTSTEPSEGSAPGSPAGSPTSTEEGTSESATPESGPGSEPATSGSETPGTSESATPESGPGSPAGSPTSTEEGSPAGSPTSTEEGTSTEPSEGSAPGTSESATPESGPGTSESATPESGPGTSESATPESGPGSEPATSGSETPGSEPATSGSETPGSPAGSPTSTEEGTSTEPSEGSAPGTSTEPSEGSAPGSEPATSGSETPGTSESATPESGPGTSTEPSEGSAPGHHHHHH
notes: Single chain: anti-EpCAM scFv, anti-CD3 scFv, release segment BSRS-1, XTEN864, His6; also called ProTIA-X
EC50, LDH release cytotoxicity, purified human CD3 positive T cells with OVCAR-3 cells 5:1 [6]: 0.0007 nM
EC50, LDH release cytotoxicity, purified human CD3 positive T cells with SK-OV-3 cells 5:1 [6]: 0.134 nM
